Experimental data taken from patent publication US6890516.

Biological target: Drosophila nitric oxide synthase (DNOS) (Drosophila) (UniProt Q27571)
Assay: cell-based or functional assay

Chain of Drosophila nitric oxide synthase (DNOS) (Drosophila) (Q27571 other isoform, or with tags, fused parts or gaps limits assumed): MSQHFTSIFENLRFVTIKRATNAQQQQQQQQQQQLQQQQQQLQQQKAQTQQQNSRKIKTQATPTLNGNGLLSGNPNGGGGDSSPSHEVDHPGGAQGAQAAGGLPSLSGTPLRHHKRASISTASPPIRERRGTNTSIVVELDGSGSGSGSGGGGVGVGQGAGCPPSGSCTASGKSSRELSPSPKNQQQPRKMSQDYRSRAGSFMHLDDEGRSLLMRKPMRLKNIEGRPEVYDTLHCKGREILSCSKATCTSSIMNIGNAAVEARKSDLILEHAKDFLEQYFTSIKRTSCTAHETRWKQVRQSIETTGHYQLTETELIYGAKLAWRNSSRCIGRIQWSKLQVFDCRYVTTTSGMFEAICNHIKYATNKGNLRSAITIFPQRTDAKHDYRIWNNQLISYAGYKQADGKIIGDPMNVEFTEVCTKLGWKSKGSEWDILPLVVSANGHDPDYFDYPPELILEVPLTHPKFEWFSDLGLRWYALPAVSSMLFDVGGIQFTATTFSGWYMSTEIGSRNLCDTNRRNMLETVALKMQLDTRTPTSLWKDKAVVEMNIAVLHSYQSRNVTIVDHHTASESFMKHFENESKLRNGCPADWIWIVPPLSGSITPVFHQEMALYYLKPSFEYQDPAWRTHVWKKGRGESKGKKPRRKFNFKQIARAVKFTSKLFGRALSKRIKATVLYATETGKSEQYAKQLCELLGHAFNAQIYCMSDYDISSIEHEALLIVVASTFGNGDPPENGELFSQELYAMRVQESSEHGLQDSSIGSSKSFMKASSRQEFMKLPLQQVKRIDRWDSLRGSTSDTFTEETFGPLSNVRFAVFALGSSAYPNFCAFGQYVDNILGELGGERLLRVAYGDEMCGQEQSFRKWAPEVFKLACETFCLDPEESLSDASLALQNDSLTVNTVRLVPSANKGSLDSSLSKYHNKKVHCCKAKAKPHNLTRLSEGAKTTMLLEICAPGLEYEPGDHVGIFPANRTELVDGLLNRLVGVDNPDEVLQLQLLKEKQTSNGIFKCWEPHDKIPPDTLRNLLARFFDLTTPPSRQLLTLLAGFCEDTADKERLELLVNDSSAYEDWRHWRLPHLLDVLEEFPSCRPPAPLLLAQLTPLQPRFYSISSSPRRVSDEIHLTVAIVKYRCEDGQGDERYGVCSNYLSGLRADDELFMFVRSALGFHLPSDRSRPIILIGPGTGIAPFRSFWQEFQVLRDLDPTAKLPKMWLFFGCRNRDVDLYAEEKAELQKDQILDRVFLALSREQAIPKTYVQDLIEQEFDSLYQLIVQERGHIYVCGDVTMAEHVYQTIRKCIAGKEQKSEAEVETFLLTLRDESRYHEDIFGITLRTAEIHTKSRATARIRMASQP

NO synthase activity (L-arginine to L-citrulline conversion, 293 cell extracts, with exogenous Ca2+ and calmodulin): 0.128 pmol/mg/min | NO synthase activity with 500 µM W5, a calmodulin antagonist: 0.0222 pmol/mg/min | NO synthase activity with 500 µM W5, a calmodulin antagonist (% of activity): 18 | NO synthase activity with 1 mM EGTA, without exogenous Ca2+ or calmodulin: 90 % reduction
Substance: calmodulin
